The results in this text go back to publication PMC5682033, “An Oleuropein β-Glucosidase from Olive Fruit Is Involved in Determining the Phenolic Composition of Virgin Olive Oil” (Frontiers in Plant Science, 2017).

Usually Km stands for the concentration of substrate that gives half-maximal velocity.

Substrate in this data set: C/C=C1/[C@H](O[C@@H]2O[C@H](CO)[C@@H](O)[C@H](O)[C@H]2O)OC=C(C(=O)OC)[C@H]1CC(=O)OCCc1ccc(O)c(O)c1
Kind of data set: HPLC determination of hydrolysed oleuropein. The conditions noted are these: free purified recombinant enzyme; standard assay. In kind it is biochemical, Olea europaea.

B1: OepGLU (recombinant olive β-glucosidase) (Olea europaea) (protein)
chain: MDIQSNVLTITSGSSPTDTSSNGQAAKSTKERIKRSDFPSDFVFGAATASYQVEGAWNEGGKGMSNWDYFTQSQPGGISDFSNGTIAIDHFNMFKDDVVVMKKLGLKAYRFSLSWPRILPGGRLCHGVSKEGVQFYNDLIDALLAADIEPYITIFHWDIPQCLQLEYGGFLHERVVQDFIEYSEICFWEFGDRVKYWITLNEPWSFTVQGYVAGAFPPNRGVTPKDTEETKKHARLHRGGGKLLTAFKYGNPGTEPYKVAHNLILCHAHAVDIYRTKYQESQGGKIGITNCISWNEPLTDSQEDKDAATRGNDFMLGWFVEPVVTGEYPESMIKNVGDRLPKFSEKEEKLVKGSYDFLGINYYTSTYTSDDPTKPTTDSYLTDSRTKTSHERNKVPIGAQAGSDWLYIVPWGIYRVMVDMKKRYNDPVIYITENGVDEVNDKSKTSTEALKDDIRIHYHQEHLYYLKLAMDQGVNLKGYFIWSLFDNFEWAAGFSVRFGVMYVDYANGRYTRLPKRSAVWWRNFLTKPTAVPLKNEPEKSEDRRKRLRGST
Consider B1, for which the Km is 26.8 mM.
